Results taken from PMC4860841, “eIF2 interactions with initiator tRNA and eIF2B are regulated by post-translational modifications and conformational dynamics” (Cell Discovery, 2015).

B1: eukaryotic initiation factor 2 α-subunit (eIF2α) (natural protein, Saccharomyces cerevisiae, UniProt P20459 1-304, looked up)
chain: MSTSHCRFYENKYPEIDDIVMVNVQQIAEMGAYVKLLEYDNIEGMILLSELSRRRIRSIQKLIRVGKNDVAVVLRVDKEKGYIDLSKRRVSSEDIIKCEEKYQKSKTVHSILRYCAEKFQIPLEELYKTIAWPLSRKFGHAYEAFKLSIIDETVWEGIEPPSKDVLDELKNYISKRLTPQAVKIRADVEVSCFSYEGIDAIKDALKSAEDMSTEQMQVKVKLVAAPLYVLTTQALDKQKGIEQLESAIEKITEVITKYGGVCNITMPPKAVTATEDAELQALLESKELDNRSDSEDDEDESDDE
modifications: found in the purified protein (Table 1): N-term-ac-S2, pS194, pS292, pS294, pS301
notes: eIF2 α-subunit, encoded by SUI2 in yeast Saccharomyces cerevisiae; Expressed from plasmid pAV1089 [SUI2 SUI3 6xHisGCD22 URA3]; N-terminal acetylation on S2 implies that the first methionine is removed; also called SUI2; source: S. cerevisiae strain GP3511 overexpressing the three eIF2 subunits
B2: eukaryotic initiation factor 2 β-subunit (eIF2β) (natural protein, Saccharomyces cerevisiae, UniProt P09064 1-285, looked up)
chain: MSSDLAAELGFDPALKKKKKTKKVIPDDFDAAVNGKENGSGDDLFAGLKKKKKKSKSVSADAEAEKEPTDDIAEALGELSLKKKKKKTKDSSVDAFEKELAKAGLDNVDAESKEGTPSANSSIQQEVGLPYSELLSRFFNILRTNNPELAGDRSGPKFRIPPPVCLRDGKKTIFSNIQDIAEKLHRSPEHLIQYLFAELGTSGSVDGQKRLVIKGKFQSKQMENVLRRYILEYVTCKTCKSINTELKREQSNRLFFMVCKSCGSTRSVSSIKTGFQATVGKRRRM
modifications: found in the purified protein (Table 1): N-term-ac-S2, pS40, acK89, pS91, pS92, pS112
notes: eIF2 β-subunit, encoded by SUI3 in yeast Saccharomyces cerevisiae; Expressed from plasmid pAV1089 [SUI2 SUI3 6xHisGCD22 URA3]; N-terminal acetylation on S2 implies that the first methionine is removed; also called SUI3; source: S. cerevisiae strain GP3511 overexpressing the three eIF2 subunits

Tests used:
[1] = target: T1, eukaryotic initiation factor 2 γ-subunit (eIF2γ), His-tagged (Saccharomyces cerevisiae, UniProt P32481 1-527, found in the purified protein (Table 1): pT60, acK129, pT137, pS258, pS265, pS312, acK401, acK519); experiment: native MS; intact His-tagged eIF2 purified from yeast, buffer exchanged against 500 mM ammonium acetate; QSTAR XL modified for high-mass complexes; tandem MS of the 24+ charge state of intact eIF2; settings: both partners purified
T1 construct: eIF2 γ-subunit, encoded by GCD11 in yeast Saccharomyces cerevisiae (the methods print the plasmid's gene as '6xHisGCD22'); also called GCD11; source: S. cerevisiae strain GP3511 overexpressing the three eIF2 subunits

[2] = target: B1; experiment: cross-linking; purified apo eIF2 with a 1:1 mixture of 2.5 mM BS3-d0/d4, 1 h, room temperature; gel, trypsin, LC-MS/MS; also compared with the ternary complex (Met-tRNAi^Met, GDPNP) by BS3-d0 against BS3-d4; settings: both partners purified

T1 sequence (P32481 whole entry): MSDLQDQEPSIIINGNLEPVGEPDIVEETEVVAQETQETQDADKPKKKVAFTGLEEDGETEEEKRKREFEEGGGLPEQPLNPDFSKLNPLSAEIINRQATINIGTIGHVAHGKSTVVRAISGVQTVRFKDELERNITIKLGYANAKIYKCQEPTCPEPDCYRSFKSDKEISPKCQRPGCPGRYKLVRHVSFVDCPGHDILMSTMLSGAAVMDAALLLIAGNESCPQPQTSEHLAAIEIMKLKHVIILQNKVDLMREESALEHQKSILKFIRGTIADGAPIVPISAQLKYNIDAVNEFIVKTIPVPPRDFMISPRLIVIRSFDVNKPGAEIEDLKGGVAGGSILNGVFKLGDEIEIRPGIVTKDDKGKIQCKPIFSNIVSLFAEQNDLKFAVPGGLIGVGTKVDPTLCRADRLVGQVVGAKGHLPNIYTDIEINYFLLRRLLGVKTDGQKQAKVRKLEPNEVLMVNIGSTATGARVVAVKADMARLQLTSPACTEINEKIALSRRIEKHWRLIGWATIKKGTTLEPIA

Binder | stoichiometry N [1] | binding result [2]
B1 | 1 | 
B2 | 1 | binds
